Test results: PMC7984235, “Structure‐based design of peptides that trigger Streptococcus pneumoniae cell death” (The Febs Journal, 2020)

B1: HigA^19–97 (domain or fragment)
chain: SKEEILESDMRVAIMSELIEARNEKGISQKKLEEMSGVSQPVIARMETGKTSPQLDTVLKVLASLGKTLAVVPLEHEQV
notes: HigA antitoxin, S. pneumoniae strain TIGR4, gene sp_1144, residues 19 to 97; Made 13C/15N-labelled for NMR; tag removed with thrombin (residues of the tag after the thrombin site may remain); also called deletion mutant HigA19-97
B2: Pal-IV (dsDNA)
DNA 1: TAGGTTATAATTGTTATTAGGAA
DNA 2: TTCCTAATAACAATTATAACCTA
B3: B (dsDNA)
DNA 1: TAATAGAATAATAAGTATCACTCCTTTA
DNA 2: TAAAGGAGTGATACTTATTATTCTATTA
B4: X (dsDNA)
DNA 1: GATTTTTTTTGATTTTTTT
DNA 2: AAAAAAATCAAAAAAAATC
B5: Pal-III (dsDNA)
DNA 1: TATTTTAATAACTTAAAAGT
DNA 2: ACTTTTAAGTTATTAAAATA
B6: Pal-I (dsDNA)
DNA 1: AGCATCTAGGAAACTAGGTGCT
DNA 2: AGCACCTAGTTTCCTAGATGCT
B7: Streptococcus pneumoniae HigB toxin (enzyme)
chain: MHNIYFYKDKNGNEPVFDYMRELTSKKGKDSRIKLNKINDYIELLSQHGTRAGEPYIKHLDAEIWELRPLRDRILFVAWMDGSFVLLHHFMKRTQKTPKREIEQAKRELADLKERGLDNEK
B8: Streptococcus pneumoniae HigA antitoxin (natural protein)
chain: MKNNAIGSNWKDVRAELFSKEEILESDMRVAIMSELIEARNEKGISQKKLEEMSGVSQPVIARMETGKTSPQLDTVLKVLASLGKTLAVVPLEHEQV
notes: Cloned with Nde1/Xho1 into pET-21a(+); Forms a dimer within the HigB-(HigA)2-HigB heterotetramer; also called WT HigA; full-length HigA
B9: Pal-II (dsDNA)
DNA 1: AACTTAAAAGTATTTACAAACAATAACTTTTAGGTT
DNA 2: AACCTAAAAGTTATTGTTTGTAAATACTTTTAAGTT

Key:
[1] = biological target: the molecule itself; assay: SEC; oligomeric state from a molecular weight comparison with various reference proteins (Fig. S2)
HigB;HigA [2] = biological target: T1, HigB;HigA (Streptococcus pneumoniae …, UniProt A0A0H2UQ08;A0A0H2UQ20 1-121;1-97, |); assay: ITC; n=0.48; ITC: 50 mM MES pH 6.0, 100 mM NaCl, 25 C; […]; settings: protein: recombinant;recombinant; chain copies: 2;2; blunt
HigB;HigA [3] = biological target: T1, HigB;HigA; assay: EMSA; up to 0.6 mM protein; ITC: 50 mM MES pH 6.0, 100 mM NaCl, 25 C; […]; settings: protein: recombinant;recombinant; chain copies: 2;2; blunt
HigA [4] = biological target: T2, HigA (Streptococcus pneumoniae TIGR4, UniProt A0A0H2UQ20 1-97); assay: ITC; n=0.50; ITC: 50 mM MES pH 6.0, 100 mM NaCl, 25 C; […]; settings: protein: recombinant; tags: pET-21a(+), stop codon in reverse primer; chain copies: 2; blunt
HigB;HigA [5] = biological target: T1, HigB;HigA; assay: ITC; n=0.53; ITC: 50 mM MES pH 6.0, 100 mM NaCl, 25 C; […]; settings: protein: recombinant;recombinant; chain copies: 2;2; blunt
HigA [6] = biological target: T2, HigA; assay: as above; settings: protein: recombinant; tags: pET-21a(+), stop codon in reverse primer; chain copies: 2; blunt
[7] = biological target: B8; assay: cell-based or functional assay
[8] = biological target: the molecule itself; assay: crystal structure; HigBA complex, sitting-drop vapor diffusion at 293 K; protein 11 mg/mL in 50 mM MES pH 6.0, 500 mM NaCl; native data to 2.30 Å, SeMet SAD phasing at 2.80 Å
HigB;HigA [9] = biological target: T1, HigB;HigA; assay: ITC; n=0.49; ITC: 50 mM MES pH 6.0, 100 mM NaCl, 25 C; […]; settings: protein: recombinant;recombinant; chain copies: 2;2; blunt
HigA [10] = biological target: T2, HigA; assay: ITC; n=0.51; ITC: 50 mM MES pH 6.0, 100 mM NaCl, 25 C; […]; settings: protein: recombinant; tags: pET-21a(+), stop codon in reverse primer; chain copies: 2; blunt

B1
stoichiometry N [1]: 2

B2
Kd (HigB;HigA [2]): 1190 ± 140 nM

B3
binding result (HigB;HigA [3]): no binding

B4
binding result (HigB;HigA [3]): no binding

B5
Kd (HigA [4]): 1340 ± 10 nM | Kd (HigB;HigA [2]): 200 ± 10 nM

B6
Kd (HigB;HigA [5]): 460 ± 30 nM | Kd (HigA [6]): 1610 ± 20 nM

B7
ribonuclease activity (fluorescence-labeled RNA substrate) of 2 μM HigBA after addition of 10 μM HigB α2 helix-mimicking peptide, relative to free HigB [7]: ~80%

B8
binding result [8]: binds

B9
Kd (HigB;HigA [9]): 700 ± 80 nM | Kd (HigA [10]): 2530 ± 110 nM
